Measured values: patent publication US20250076311A1 (Chugai, published 2025)
Positions count from the first letter of the chain named. In names and notes the source's numbering stands. Where two headings read alike, the source gives them in different places. Blank lines part the entries; values can stand above or below the binder they belong to.

Tests used:
[1] = biological target: T1, cynomolgus monkey FcγRIIIaS extracellular domain with C-terminal His-tag (cynomolgus monkey, UniProt Q8SPW2 21-206 at identity 1.00)); test: SPR, KD(SG1)/KD(variant)
T1 construct: also called cyno FcgRIIIaS; cynoFcγRIIIaS
T1 chain: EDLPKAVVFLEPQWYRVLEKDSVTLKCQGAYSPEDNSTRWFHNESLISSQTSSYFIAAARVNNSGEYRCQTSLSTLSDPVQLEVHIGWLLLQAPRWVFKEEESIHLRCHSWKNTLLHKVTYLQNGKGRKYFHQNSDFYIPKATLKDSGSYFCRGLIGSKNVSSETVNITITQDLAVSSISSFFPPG

[2] = biological target: T2, human FcγRIIaH extracellular domain with C-terminal His-tag (human, UniProt P12318 34-217); test: SPR, KD(SG1)/KD(variant)
T2 construct: also called human FcgRIIaH; FcγRIIa (type H)
T2 sequence: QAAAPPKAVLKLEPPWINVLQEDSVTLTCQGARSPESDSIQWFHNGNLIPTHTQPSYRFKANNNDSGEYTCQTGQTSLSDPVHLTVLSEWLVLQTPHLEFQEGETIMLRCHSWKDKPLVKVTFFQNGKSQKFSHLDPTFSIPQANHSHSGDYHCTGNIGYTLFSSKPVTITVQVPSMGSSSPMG

[3] = biological target: T3, cynomolgus monkey FcγRIIIaS extracellular domain with C-terminal His-tag (cynomolgus monkey, UniProt Q8SPW2 21-206 at identity 1.00)); test: SPR (Biacore), antibody captured, FcgR as analyte
T3 construct: also called cyno FcgRIIIaS; cynoFcγRIIIaS
T3 chain: T1 chain

[4] = biological target: T4, cynomolgus monkey FcγRIIa1 extracellular domain with C-terminal His-tag (cynomolgus monkey); test: SPR (Biacore), antibody captured, FcgR as analyte
T4 construct: also called cyno FcgRIIa1; cynoFcγRIIa1
T4 chain: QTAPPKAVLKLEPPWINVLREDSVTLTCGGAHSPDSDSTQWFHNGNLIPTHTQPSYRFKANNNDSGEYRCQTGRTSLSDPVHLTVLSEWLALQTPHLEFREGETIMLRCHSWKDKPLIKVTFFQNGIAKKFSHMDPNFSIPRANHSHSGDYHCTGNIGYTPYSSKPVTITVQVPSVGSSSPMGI

[5] = biological target: T1, cynomolgus monkey FcγRIIIaS …; test: SPR, antibody captured, FcγR analyte
[6] = biological target: T5, cynomolgus monkey FcγRIIb extracellular domain with C-terminal His-tag (cynomolgus monkey); test: SPR, KD(SG1)/KD(variant)
T5 construct: also called cyno FcgRIIb; cynoFcγRIIb
T5 chain: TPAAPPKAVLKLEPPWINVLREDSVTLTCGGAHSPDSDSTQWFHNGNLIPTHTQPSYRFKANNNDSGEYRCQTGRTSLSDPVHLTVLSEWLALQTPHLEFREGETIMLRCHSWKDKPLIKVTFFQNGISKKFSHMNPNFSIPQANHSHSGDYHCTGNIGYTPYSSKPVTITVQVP
Procedure: (§1) The kinetic analysis of interactions between these antibodies and FcγR was carried out using BIACORE® T200 or BIACORE® 4000 (GE Healthcare). HBS-EP+ (GE Healthcare) was used as the running buffer, and the measurement temperature was set to 25° C. […] After the measurement, the antibody captured on the chip was washed off by allowing reaction with 10 mM glycine-HCl, pH1.5 and 25 mM NaOH so that the chip was regenerated and used repeatedly. The sensorgrams obtained as measurement results were analyzed by the 1:1 Langmuir binding model using the BIACORE® Evaluation Software to calculate the binding rate constant ka (L/mol/s) and dissociation rate constant kd (1/s), and the dissociation constant KD (mol/L) was calculated from these values. […] Regarding such interactions, KD values were calculated using the following 1:1 binding model described in BIACORE® T100 Software Handbook BR1006-48 Edition AE.

[7] = biological target: T6, cynomolgus monkey FcγRIIa3 extracellular domain with C-terminal His-tag (cynomolgus monkey); test: SPR, KD(SG1)/KD(variant)
T6 construct: also called cyno FcgRIIa3; cynoFcγRIIa3
T6 chain: T4 chain with P95T, T121A, A128S, H133P, D135N
Procedure: as §1

[8] = biological target: T1, cynomolgus monkey FcγRIIIaS …; test: SPR, KD(SG1)/KD(variant)
Procedure: as §1

[9] = biological target: T6, cynomolgus monkey FcγRIIa3 …; test: SPR, KD(SG1)/KD(variant)
Procedure: as §1

[10] = biological target: T7, human FcγRIIaH extracellular domain, His-tagged (human, UniProt P12318 34-217); test: SPR (BIACORE), antibody captured on chip, FcγR as analyte, 25 C; KD of SG1 divided by KD of the variant
T7 construct: also called human FcγRIIa (type H); FcgRIIaH; not shown: His-tag added to the C-terminus
T7 sequence: T2 sequence
Procedure: as §1

[11] = biological target: T8, human FcγRIIIaV extracellular domain, His-tagged (human, UniProt P08637 17-208); test: as above
T8 construct: also called human FcγRIIIa (V158 allotype); FcgRIIIaV; not shown: His-tag added to the C-terminus
T8 sequence (P08637 17-208 F176V): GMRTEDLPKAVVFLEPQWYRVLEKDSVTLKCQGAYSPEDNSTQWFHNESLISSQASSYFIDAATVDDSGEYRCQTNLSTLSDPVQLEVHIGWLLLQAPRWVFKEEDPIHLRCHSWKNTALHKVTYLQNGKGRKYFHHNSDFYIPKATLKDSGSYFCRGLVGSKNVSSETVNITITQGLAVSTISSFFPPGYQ
Procedure: as §1

[12] = biological target: T9, human FcγRIIb extracellular domain with C-terminal His-tag (human, UniProt P31994 43-217); test: SPR (Biacore), KD of SG1 divided by KD of variant
T9 construct: also called human FcgRIIb
T9 sequence: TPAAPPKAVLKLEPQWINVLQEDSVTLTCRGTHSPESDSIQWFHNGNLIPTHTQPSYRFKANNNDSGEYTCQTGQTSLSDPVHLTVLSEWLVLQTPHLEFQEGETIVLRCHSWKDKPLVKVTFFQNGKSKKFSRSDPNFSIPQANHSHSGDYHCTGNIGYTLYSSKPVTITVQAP

[13] = biological target: T10, human FcγRIIaR extracellular domain with C-terminal His-tag (human, UniProt P12318 34-217); test: SPR (Biacore), antibody captured, FcgR as analyte
T10 construct: also called human FcgRIIaR; FcγRIIa (type R)
T10 chain: T2 sequence with H134R

[14] = biological target: T11, cynomolgus monkey FcγRIIa3 extracellular domain with C-terminal His-tag (cynomolgus monkey); test: SPR (Biacore), antibody captured, FcgR as analyte
T11 construct: also called cyno FcgRIIa3; cynoFcγRIIa3
T11 chain: T4 chain with P95T, T121A, A128S, H133P, D135N

[15] = biological target: T12, cynomolgus monkey FcγRIIa2 extracellular domain with C-terminal His-tag (cynomolgus monkey); test: SPR (Biacore), KD of SG1 divided by KD of variant
T12 construct: also called cyno FcgRIIa2; cynoFcγRIIa2
T12 chain: T4 chain with P95T, T121A, I127K, A128S, K130N, D135N, R142Q

[16] = biological target: T9, human FcγRIIb extracellular domain with …; test: SPR (Biacore), antibody captured, FcgR as analyte
[17] = biological target: T13, human FcγRIIaH extracellular domain with C-terminal His-tag (human, UniProt P12318 34-217); test: SPR (Biacore), KD of SG1 divided by KD of variant
T13 construct: also called human FcgRIIaH; FcγRIIa (type H)
T13 sequence: T2 sequence

[18] = biological target: T10, human FcγRIIaR extracellular domain …; test: SPR (Biacore), KD of SG1 divided by KD of variant
[19] = biological target: T14, cynomolgus monkey FcγRIIb extracellular domain with C-terminal His-tag (cynomolgus monkey); test: SPR (Biacore), KD of SG1 divided by KD of variant
T14 construct: also called cyno FcgRIIb; cynoFcγRIIb
T14 chain: T5 chain

[20] = biological target: T13, human FcγRIIaH extracellular domain …; test: SPR (Biacore), antibody captured, FcgR as analyte
[21] = biological target: T12, cynomolgus monkey FcγRIIa2 …; test: SPR (Biacore), antibody captured, FcgR as analyte
[22] = biological target: T5, cynomolgus monkey FcγRIIb extracellular …; test: SPR, antibody captured, FcγR analyte
[23] = biological target: T6, cynomolgus monkey FcγRIIa3 …; test: SPR, antibody captured, FcγR analyte
[24] = biological target: T15, cynomolgus monkey FcγRIIa1 extracellular domain with C-terminal His-tag (cynomolgus monkey); test: SPR, KD(SG1)/KD(variant)
T15 construct: also called cyno FcgRIIa1; cynoFcγRIIa1
T15 chain: T4 chain
Procedure: as §1

[25] = biological target: T16, cynomolgus monkey FcγRIIa2 extracellular domain with C-terminal His-tag (cynomolgus monkey); test: SPR, KD(SG1)/KD(variant)
T16 construct: also called cyno FcgRIIa2; cynoFcγRIIa2
T16 chain: T4 chain with P95T, T121A, I127K, A128S, K130N, D135N, R142Q
Procedure: as §1

B2: M103205H795-MY526 / M103202L889-SK1 (antibody, human IgG1, kappa, name in EU numbering)
heavy: QVTLKESGPVLVKPTETLTLTCTVSGIDLSHDDISWVRQAPGKGLEWVGIISYAGSTYYASWAKGRLTISKDTSKNQVVLTMTNMDPVDTATYYCARGVPAYSHGGDLWGQGTLVTVSSASTKGPSVFPLAPSSKSTSGGTAALGCLVKDYFPEPVTVSWNSGALTSGVHTFPAVLQSSGLYSLSSVVTVPSSSLGTQTYICNVNHKPSNTKVDKKVEPKSCDKTHTCPPCPTPELLTGPVVFLFPPKPKDTLMISRTPEVTCVVVDVSDEDPEVKFNWYVDGVEVHNAKTKPREELYNSTYRVVSVLTVLHQDWLNGKEYKCKVSNKALPKPIEKTISKAKGQPREPQVYTLPPSREEMTKNQVSLTCLVKGFYPSDIAVEWESNGQPENNYKTTPPVLDSDGSFFLYSKLTVDKSRWQQGNVFSCSVMHEALHNHYTQKSLSLSP
light: DIVMTQSPATLSLSPGERATLSCTSSQSVYHANWLSWFQQKPGQPPKLLIYWASTLAYGVPSRFSGSGSGTDFTLTISSLQPEDAATYYCAGGYGGGRYAFGQGTKVEIKRTVAAPSVFIFPPSDEQLKSGTASVVCLLNNFYPREAKVQWKVDNALQSGNSQESVTEQDSKDSTYSLSSTLTLSKADYEKHKVYACEVTHQGLSSPVTKSFNRGEC
Kd [3]: 1600 nM | Kd [4]: 1300 nM

B3: MS1032LO06-MY201 (antibody, human IgG1, kappa)
heavy: B2 heavy with T233A, T238N, V241S, L297Q
light: B2 light
notes: also called M103205H795-MY201; copies: 2 + 2
Kd [5]: 3.7 µM | KD fold (SG1 = 1) [6]: 5 fold | KD fold (SG1 = 1) [7]: 4.5 fold | KD fold (SG1 = 1) [8]: 0.08 fold

B4: MS1032LO06-MY205 (antibody, human IgG1, kappa)
heavy: B2 heavy with T233A, T238N, V241S
light: B2 light
notes: also called M103205H795-MY205; copies: 2 + 2
KD fold (SG1 = 1) [9]: 5.2 fold

B5: M103205H795-MY321/M103202L889-SK1 (antibody, human IgG1, kappa, name in EU numbering)
heavy: B2 heavy with T233A, T238H, V241S, L297Q, P398M
light: B2 light
notes: Fc variant made by introducing substitutions into M103205H795-SG1; expressed with M103202L889-SK1 as light chain; Substitution positions are EU numbering
KD fold for humanFcgRs (SG1 = 1) [10]: 9.7 fold | KD fold for humanFcgRs (SG1 = 1) [11]: 0.24 fold

B8: M103205H795-MY387 / M103202L889-SK1 (antibody, human IgG1, kappa, name in EU numbering)
heavy: B2 heavy with T233A, L297Q
light: B2 light
KD fold (SG1 = 1) [17]: 2.9 fold | KD fold (SG1 = 1) [18]: 5.5 fold | KD fold (SG1 = 1) [12]: 2.9 fold | KD fold (SG1 = 1) [19]: 2.7 fold | Kd [20]: 240 nM | Kd [21]: 1900 nM

B9: MS1032LO06-PK56 (antibody, human IgG1, kappa)
heavy: B2 heavy with T233A, T238N, V241S, L297Q, Q313R, P345R, D415R
light: B2 light
notes: MY201 with Q311R/P343R/D413R; also called MS103205H795-PK56; M103205H795-MY56
Kd [22]: 550 nM | Kd [23]: 3.5 µM | Kd [5]: 4.4 µM | KD fold (SG1 = 1) [7]: 2.5 fold | KD fold (SG1 = 1) [24]: 2.5 fold | KD fold (SG1 = 1) [25]: 3.9 fold | KD fold (SG1 = 1) [8]: 0.08 fold

The next lines start with the values.

KD fold (SG1 = 1) [1]: 0.17 fold | KD fold (SG1 = 1) [2]: 1.8 fold
B1: M103205H795-MY535/M103202L889-SK1 (antibody, human IgG1, kappa, name in EU numbering)
heavy: B2 heavy with T233G, L236W, V241S, L297Q
light: B2 light
notes: copies: 2 + 2

KD fold (SG1 = 1) [12]: 1.6 fold | Kd [13]: 630 nM | Kd [14]: 9.8 µM
B6: M103205H795-MY339 / M103202L889-SK1 (antibody, human IgG1, kappa, name in EU numbering)
heavy: B2 heavy with T233A, T238L, V241S, L297Q, K328T, P398K
light: B2 light

KD fold (SG1 = 1) [15]: 3.5 fold | Kd [16]: 1200 nM
B7: M103205H795-MY534 / M103202L889-SK1 (antibody, human IgG1, kappa, name in EU numbering)
heavy: B2 heavy with T233A
light: B2 light
